The source of these data is paper PMC10219652, “Insights into cargo sorting by SNX32 and its role in neurite outgrowth” (eLife, 2023).

Experiment [1] deals with GFP-SNX4 (UniProt O95219). As to the kind of experiment: co-IP; GBP-IP as above with lysates of HeLa cells transiently transfected with wild-type or mutant GFP-SNX4 and HA-SNX32 (legend of Figure 1H); values are the ratio of HA to GFP band intensity.
In experiment [2] the target is T1, GFP-SNX4, O95219.
T1 chain: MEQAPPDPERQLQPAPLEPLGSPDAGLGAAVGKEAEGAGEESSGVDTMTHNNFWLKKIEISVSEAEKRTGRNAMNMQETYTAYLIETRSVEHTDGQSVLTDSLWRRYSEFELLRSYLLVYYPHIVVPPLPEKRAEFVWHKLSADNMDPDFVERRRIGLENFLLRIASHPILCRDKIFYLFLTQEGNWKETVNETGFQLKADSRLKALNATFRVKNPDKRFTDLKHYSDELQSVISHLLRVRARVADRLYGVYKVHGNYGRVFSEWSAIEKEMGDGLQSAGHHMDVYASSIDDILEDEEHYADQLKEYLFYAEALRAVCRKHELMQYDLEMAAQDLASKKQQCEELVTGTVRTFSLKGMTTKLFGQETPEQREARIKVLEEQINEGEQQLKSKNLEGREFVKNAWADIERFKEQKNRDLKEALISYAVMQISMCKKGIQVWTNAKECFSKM
As to the kind of experiment: co-IP; GFP nanobody-based immunoprecipitation (GBP-IP): GST-GBP on glutathione sepharose beads incubated 2 hr at 4°C with extracts of HEK293T cells overexpressing GFP- and HA-tagged SNX proteins; washed with 1x PBS; immunoblot with anti-HA and anti-GFP; values are the ratio of HA to GFP band intensity. To be noted: remark: other sources report otherwise. On the technique in general: In western blotting, separated proteins are transferred to a membrane and probed.

For experiment [3], the target named is T2, GFP-SNX1 (UniProt Q13596-1 1-522).
T2 construct: Sorting nexin 1 (SNX1); pEGFP C1 SNX1, gift of P. J. Cullen; also called GFP-SNX1 WT; pEGFP C1 SNX1
T2 sequence (Q13596 whole entry): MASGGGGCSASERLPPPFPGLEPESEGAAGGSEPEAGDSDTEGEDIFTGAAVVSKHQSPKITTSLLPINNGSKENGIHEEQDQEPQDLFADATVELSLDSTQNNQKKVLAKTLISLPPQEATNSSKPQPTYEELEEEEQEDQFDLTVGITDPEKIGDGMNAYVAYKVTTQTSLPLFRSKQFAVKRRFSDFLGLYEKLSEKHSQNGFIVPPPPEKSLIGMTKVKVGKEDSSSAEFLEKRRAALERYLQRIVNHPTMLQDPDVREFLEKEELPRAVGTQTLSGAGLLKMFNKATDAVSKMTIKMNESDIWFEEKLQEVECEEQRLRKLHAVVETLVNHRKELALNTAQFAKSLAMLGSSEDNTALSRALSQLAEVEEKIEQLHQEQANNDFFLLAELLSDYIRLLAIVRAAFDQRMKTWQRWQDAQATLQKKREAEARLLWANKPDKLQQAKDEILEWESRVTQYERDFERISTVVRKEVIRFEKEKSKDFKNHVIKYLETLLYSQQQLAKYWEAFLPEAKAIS
Described as above. To be noted: partners not purified.

Experiment [4] addresses T3, GFP-SNX8 (UniProt Q9Y5X2 1-465).
T3 construct: Sorting nexin 8 (SNX8); the plasmid is not described in the methods; source: HEK293T, transiently transfected, in lysate
T3 sequence (looked up): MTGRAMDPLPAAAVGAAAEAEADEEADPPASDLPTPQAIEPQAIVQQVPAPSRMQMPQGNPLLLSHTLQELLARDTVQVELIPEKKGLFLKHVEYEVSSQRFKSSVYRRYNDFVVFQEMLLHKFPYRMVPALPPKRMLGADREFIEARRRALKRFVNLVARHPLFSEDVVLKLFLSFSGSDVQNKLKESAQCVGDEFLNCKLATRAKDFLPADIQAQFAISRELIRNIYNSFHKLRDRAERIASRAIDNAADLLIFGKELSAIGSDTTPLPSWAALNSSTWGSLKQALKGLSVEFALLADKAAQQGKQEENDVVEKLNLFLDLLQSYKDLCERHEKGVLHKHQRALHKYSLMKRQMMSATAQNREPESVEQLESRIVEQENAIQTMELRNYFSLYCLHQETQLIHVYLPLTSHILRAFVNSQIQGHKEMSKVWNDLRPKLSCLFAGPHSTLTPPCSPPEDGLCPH
Described as above. To be noted: partners not purified.

For experiment [5], the target named is T4, GFP-SNX32 (UniProt Q86XE0-1 1-403).
T4 construct: Sorting nexin 32 (SNX32, SNX6b); pEGFP C1 SNX32 FL, gift of P. J. Cullen; also called GFP-SNX32 WT; pEGFP C1 SNX32 FL; source: HEK293T or HeLa, transiently transfected, in lysate
T4 sequence (looked up): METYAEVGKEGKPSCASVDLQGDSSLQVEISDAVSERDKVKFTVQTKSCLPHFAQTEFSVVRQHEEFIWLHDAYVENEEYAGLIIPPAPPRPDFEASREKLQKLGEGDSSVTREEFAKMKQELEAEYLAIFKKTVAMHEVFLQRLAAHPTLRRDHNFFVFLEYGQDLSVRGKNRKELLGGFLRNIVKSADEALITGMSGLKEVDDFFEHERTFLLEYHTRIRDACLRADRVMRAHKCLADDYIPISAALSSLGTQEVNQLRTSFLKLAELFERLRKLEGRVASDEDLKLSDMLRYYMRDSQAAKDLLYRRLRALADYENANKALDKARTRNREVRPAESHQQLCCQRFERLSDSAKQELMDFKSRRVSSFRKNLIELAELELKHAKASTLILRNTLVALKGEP
Described as above. Conditions: partners not purified.

Experiment [6] concerns the target T5, GFP-SNX4 (UniProt O95219-1 1-450).
T5 construct: Sorting nexin 4 (SNX4); pEGFP C1 SNX4, gift of P. J. Cullen; also called GFP-SNX4 WT; pEGFP C1 SNX4; source: HEK293T or HeLa, transiently transfected, in lysate
T5 sequence (looked up): T1 chain
As to the kind of experiment: co-IP; GBP-IP as above with lysates of HeLa cells transiently transfected with wild-type or mutant GFP-SNX4 and HA-SNX32 (legend of Figure 1H); values are the ratio of HA to GFP band intensity. To be noted: partners not purified.

Residue numbers refer to the chain shown, from its start. Names and notes keep the numbering of the source.

For “HA-SNX32 A226E (from UniProt Q86XE0-1 1-403) (natural protein)”, the ratio of HA to GFP band intensity in experiment [1] is 0.65.

B1: HA-SNX32 full-length (FL) (natural protein, UniProt Q86XE0-1 1-403, looked up)
chain: T4 sequence (looked up)
notes: Sorting nexin 32 (SNX32, SNX6b); pcDNA3 HA N(I)-SNX32 FL subcloned from pEGFP C1-SNX32FL; also called HA-SNX32FL; HA-SNX32 WT; source: HEK293T or HeLa, transiently transfected, in lysate
On to B1, for which the ratio of HA to GFP band intensity in experiment [2] turned out to be 0.92; in experiment [3] it was 0.98; in experiment [4] it was 0.62; in experiment [5] it was 0.85.

B2: HA-SNX32 Q259R (natural protein, UniProt Q86XE0-1 1-403, looked up)
chain: T4 sequence (looked up) with Q259R
notes: Sorting nexin 32 (SNX32) with a point mutation, made by site-directed mutagenesis of HA-tagged SNX32; also called pcDNA3 HA N(I)-SNX32 Q259R; source: HeLa, transiently transfected, in lysate
For the molecule B2, the “ratio of HA to GFP band intensity” value in experiment [6] was 0.75.

B3: HA-SNX32 R220E (natural protein, UniProt Q86XE0-1 1-403, looked up)
chain: T4 sequence (looked up) with R220E
notes: Sorting nexin 32 (SNX32) with a point mutation, made by site-directed mutagenesis of HA-tagged SNX32; also called pcDNA3 HA N(I)-SNX32 R220E; source: HeLa, transiently transfected, in lysate
With B3, in experiment [6], the “ratio of HA to GFP band intensity” value was 1.02.

B4: HA-SNX32 R366E (natural protein, UniProt Q86XE0-1 1-403, looked up)
chain: T4 sequence (looked up) with R366E
notes: Sorting nexin 32 (SNX32) with a point mutation, made by site-directed mutagenesis of HA-tagged SNX32; also called pcDNA3 HA N(I)-SNX32 R366E; source: HeLa, transiently transfected, in lysate
Turning to B4, the “ratio of HA to GFP band intensity” value in experiment [6] is 0.49.

B5: HA-SNX32 E256R (natural protein, UniProt Q86XE0-1 1-403, looked up)
chain: T4 sequence (looked up) with E256R
notes: Sorting nexin 32 (SNX32) with a point mutation, made by site-directed mutagenesis of HA-tagged SNX32; also called pcDNA3 HA N(I)-SNX32E256R; source: HeLa, transiently transfected, in lysate
Take B5: in experiment [6], the “ratio of HA to GFP band intensity” value amounted to 0.66.
